From PMC4192513, “A Novel Protein-Protein Interaction in the RES (REtention and Splicing) Complex” (The Journal of Biological Chemistry, 2014)
Ends that are not written are not given here.

How the values were obtained:
[1] = target: T1, Snu17p (residues 1–113) (Saccharomyces cerevisiae, UniProt P40565); experiment: Isothermal titration calorimetry (ITC) of Bud13p ligands binding to Snu17p; details: 25 °C, NMR buffer pH 6.3
T1 construct: The concentration of Snu17p (residues 1–113) in the cell (1440 μl) varied between 30 and 70 μM; His6 (N, cleaved yes); GST (N, cleaved yes); made in house; host or cells: Escherichia coli BL21(DE3) pLysS
T1 sequence (P40565 1-113): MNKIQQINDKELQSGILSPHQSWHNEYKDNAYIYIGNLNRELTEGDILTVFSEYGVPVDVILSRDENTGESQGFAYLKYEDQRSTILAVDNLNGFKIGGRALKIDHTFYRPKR
Procedure: (§1) Recombinant proteins were purified by sonicating the harvested cell pellet in 25 ml of lysis buffer (20 mM Tris, pH 7.5, 300 mM NaCl, 10 mM imidazole, 1 mM DTT, and 0.02% NaN3), also including protease inhibitors, RNase, lysozyme, and 0.2% IGEPAL. After high speed centrifugation (20,000 × g, 30 min) and filtering, each supernatant was applied to Ni-NTA-agarose resin (Qiagen). Several rounds of washing were performed with: lysis buffer including 0.2% IGEPAL, lysis buffer, lysis buffer with high salt concentration (1 M NaCl), and lysis buffer with high imidazole concentration (30 mM imidazole). Finally, each protein was eluted by applying 10 ml of a buffer containing 20 mM Tris, pH 7.5, 300 mM NaCl, 330 mM imidazole, 1 mM DTT, and 0.02% NaN3. Tobacco etch virus protease was added to each sample and incubated overnight at 4 °C. To remove the cleaved GST tag each sample was passed over a second Ni-NTA column. A second purification step included size exclusion chromatography (HiLoad, Superdex 75 16/60, GE Healthcare). In this step, proteins were buffer exchanged into the NMR buffer (20 mM sodium phosphate, pH 6.3, 25 mM NaCl, and 2 mM fresh DTT or Tris(2-carboxyethyl)phosphine, 0.02% NaN3). Stoichiometric hybrid-labeled samples were prepared by mixing excess Bud13p with Snu17p and performing another step of size exclusion chromatography (HiLoad, Superdex 75 16/60, GE Healthcare). […]

[2] = target: T1, Snu17p (residues 1–113); experiment: NMR titration (1H,15N correlation spectra) of 15N-labeled Snu17p (residues 1–113) with Bud13p peptides; format: binding; details: 298 K, 20 mM sodium phosphate, pH 6.3, 25 mM NaCl
Procedure: Recombinant proteins were purified by sonicating the harvested cell pellet in 25 ml of lysis buffer (20 mM Tris, pH 7.5, 300 mM NaCl, 10 mM imidazole, 1 mM DTT, and 0.02% NaN3), also including protease inhibitors, RNase, lysozyme, and 0.2% IGEPAL. After high speed centrifugation (20,000 × g, 30 min) and filtering, each supernatant was applied to Ni-NTA-agarose resin (Qiagen). Several rounds of washing were performed with: lysis buffer including 0.2% IGEPAL, lysis buffer, lysis buffer with high salt concentration (1 M NaCl), and lysis buffer with high imidazole concentration (30 mM imidazole). Finally, each protein was eluted by applying 10 ml of a buffer containing 20 mM Tris, pH 7.5, 300 mM NaCl, 330 mM imidazole, 1 mM DTT, and 0.02% NaN3. Tobacco etch virus protease was added to each sample and incubated overnight at 4 °C. To remove the cleaved GST tag each sample was passed over a second Ni-NTA column. A second purification step included size exclusion chromatography (HiLoad, Superdex 75 16/60, GE Healthcare). In this step, proteins were buffer exchanged into the NMR buffer (20 mM sodium phosphate, pH 6.3, 25 mM NaCl, and 2 mM fresh DTT or Tris(2-carboxyethyl)phosphine, 0.02% NaN3). Stoichiometric hybrid-labeled samples were prepared by mixing excess Bud13p with Snu17p and performing another step of size exclusion chromatography (HiLoad, Superdex 75 16/60, GE Healthcare). Two shorter peptides of Bud13p (residues 221–242 or residues 225–238) were purchased from Peptide Specialty Laboratories (Heidelberg, Germany), and extensively dialyzed before binding experiments.
NMR spectra were recorded at 298 K on an AVIII800 Bruker NMR spectrometer equipped with a cryogenic triple resonance gradient probe. Spectra were processed using NMRPipe ([21]). Protein backbone and side chain assignments were obtained from standard triple resonance experiments ([22]). NOE distance restraints were obtained from ^15N- and ^13C-edited three-dimensional NOESY spectra (mixing time 70 ms) where only Snu17p or Bud13p proteins were labeled. Intermolecular NOE restraints were derived from three-dimensional ^15N,^13C-filtered, ^13C-edited NOESY spectra (mixing time 70 ms) ([22], [23]). Stereospecific assignments of pro-chiral methyl groups of valine and leucine were obtained using 10% ^13C-labeled protein samples ([24]).
To characterize the unexpected molecular features of the Snu17p-Bud13p interaction we proceeded with biophysical and structural characterization of the binary complex (Fig. 3). […] We tested binding to a series of Bud13p fragments to identify the minimum binding region in Bud13p (Fig. 3, a and b). NMR titrations confirmed binding to a Bud13p peptide encompassing residues 201–266 as has been shown previously ([20]).

[3] = test system: Snu17p; experiment: NMR of 15N-labeled Bud13p in complex with unlabeled Snu17p; format: binding, Saccharomyces cerevisiae; details: 15N-labeled Bud13p (residues 222–256), 298 K
Procedure: as §1, with “NaN3).” for “NaN3). Stoichiometric hybrid-labeled samples were prepared by mixing excess Bud13p with Snu17p and performing another step of size exclusion chromatography (HiLoad, Superdex 75 16/60, GE Healthcare).”
(§2) NMR spectra were recorded at 298 K on an AVIII800 Bruker NMR spectrometer equipped with a cryogenic triple resonance gradient probe. […]

[4] = Precipitation / solubility of the sample on addition of Bud13p peptide to 15N-labeled Snu17p; format: physicochemical; details: addition to recombinant 15N-labeled Snu17p, NMR titration
Procedure: as §1

[5] = test system: Snu17p (residues 25–113); experiment: NMR chemical shift perturbation with shorter Snu17p protein (residues 25–113); format: binding, Saccharomyces cerevisiae; details: shorter Snu17p protein (residues 25–113) compared with residues 1–113; data not shown
Procedure: as §1, with “NaN3).” for “NaN3). Stoichiometric hybrid-labeled samples were prepared by mixing excess Bud13p with Snu17p and performing another step of size exclusion chromatography (HiLoad, Superdex 75 16/60, GE Healthcare).”
as §2

Substance	binding affinity (in words) [1]	NMR chemical shift perturbations (CSPs) of Snu17p [2]	chemical shift changes in Bud13p spectra on binding to Snu17p [3]	precipitation / solubility of the sample [4]	NMR CSPs induced by Bud13p binding [5]
Bud13p^225-238: Bud13p residues 225–238, purchased from Peptide Specialty Laboratories (Heidelberg) (AIMPGSRWDGVHRS)	binds very weakly	hardly induced any NMR spectral changes for Snu17p			
ENRFAIMPGSRWDGVHRSNGFE [Bud13p^221-242]		affected the same Snu17p residues but to a lesser extent compared with the longer ones			
Bud13p^222-256: Bud13p residues 222–256, recombinant from E. coli; optimal Bud13p peptide, minimum interacting region		large chemical shift changes, induced by Bud13p binding, map on the two helices plus adjacent loop regions of the Snu17p RRM-fold	extensive chemical shift changes in Bud13p spectra	proteins remained in solution	Virtually identical NMR CSPs
Bud13p^201-266: Bud13p residues 201–266, recombinant from E. coli, GST tag cleaved		extensive chemical shift perturbations (CSPs)		led to precipitation of the sample	
